From patent US20230027238A1 (SPECTRUM PHARMACEUTICALS, published 2023)

What was measured:
[1] = biological target: GLP-1R on CHO cells (CHO/GLP-1R); assay: cell-based or functional assay
[2] = biological target: T1, Chinese hamster ovary (CHO) cell-derived soluble recombinant human G-CSF receptor (human, UniProt Q99062 25-627); assay: SPR (BIAcore 3000), receptor amine-coupled to the chip, analyte 6.25-100 nmol/L, 25 °C, 1:1 Langmuir fit
T1 construct: extracellular domain; Immobilised by amine coupling on the sensor chip; also called soluble human G-CSF receptor; R&D Systems 381-050/CF
T1 sequence (looked up): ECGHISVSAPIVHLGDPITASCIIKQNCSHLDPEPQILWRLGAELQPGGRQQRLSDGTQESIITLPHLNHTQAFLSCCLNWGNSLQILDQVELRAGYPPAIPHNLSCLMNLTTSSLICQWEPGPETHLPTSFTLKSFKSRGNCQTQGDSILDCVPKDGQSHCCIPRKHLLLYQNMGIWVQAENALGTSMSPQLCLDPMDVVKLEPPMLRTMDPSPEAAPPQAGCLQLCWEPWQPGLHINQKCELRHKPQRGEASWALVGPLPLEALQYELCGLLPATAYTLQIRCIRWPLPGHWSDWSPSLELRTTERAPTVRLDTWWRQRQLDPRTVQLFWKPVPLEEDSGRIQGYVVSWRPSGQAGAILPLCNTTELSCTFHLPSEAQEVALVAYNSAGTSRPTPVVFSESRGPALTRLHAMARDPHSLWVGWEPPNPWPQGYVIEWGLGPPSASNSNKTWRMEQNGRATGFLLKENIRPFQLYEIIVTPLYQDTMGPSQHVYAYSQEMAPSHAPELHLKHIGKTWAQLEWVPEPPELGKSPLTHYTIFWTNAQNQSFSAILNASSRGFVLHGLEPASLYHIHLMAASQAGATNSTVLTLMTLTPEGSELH
Excerpt: Surface plasmon resonance technology and the BIAcore 3000 biosensor (GE healthcare) were employed to measure in vitro binding affinity to the G-CSF receptor. Amine-coupling chemistry was used to immobilize the G-CSF receptor on CMS biosensor chip. […] The CMS sensor chip surface was activated by injecting a 1:1 mixture of 0.1 mol/L N-hydroxysuccinimide (GE healthcare) and 0.1 mol/L 3-(N,N-dimethylamino)propyl-N-ethylcarbodiamide (GE Healthcare). […] The chip surface was then blocked with ethanolamine/HCl (GE Healthcare), pH 8.5, and washed with a regeneration solution (50 mmol/L NaCl; 5 mmol/L NaOH). […] Binding affinity was calculated using the 1:1 Langmuir fitting model for each test material.

[3] = biological target: T2, Fc fragment of eflapegrastim (human, UniProt P01861 107-325 = IgG part, aglycosylated (made in recombinant E. coli cells)); assay: ELISA with GST-FcγRIIB, detection with anti-GST antibody
T2 construct: tested alone, without PEG and G-CSF; also called aglycosylated IgG4-Fc fragment; immunoglobulin Fc fragment
Method: For C1q, FcγRIIB, FcγRIIIA, and FcRn binding assays, serial dilutions of the test materials were added to 96-well microplates coated with C1q, or GST fusion proteins of FcγRIIB or FcγRIIIA, or FcRn αβ2. After incubation and washing, HRP-conjugated anti-C1q antibody was added for C1q binding assay, and rabbit-anti-GST antibody and HRP-conjugated anti-rabbit IgG antibody were sequentially added for FcγRIIB, FcγRIIIA, and FcRn binding assays. The absorbance was measured at 450 nm as described above for FcγRI binding assay.

T2 sequence (P01861 other isoform, or with tags, fused parts or gaps limits assumed): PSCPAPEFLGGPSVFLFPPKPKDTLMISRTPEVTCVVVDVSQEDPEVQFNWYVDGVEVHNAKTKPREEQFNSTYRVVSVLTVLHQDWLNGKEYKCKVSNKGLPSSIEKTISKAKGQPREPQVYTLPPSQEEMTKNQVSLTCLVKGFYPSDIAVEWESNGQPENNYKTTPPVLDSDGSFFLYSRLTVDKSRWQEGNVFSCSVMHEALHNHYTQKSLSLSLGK

Molecule: CA Exendin (lysine)-PEG-(lysine) Fc (Fc fusion)
- % vs. Experimental group, CHO/GLP-1R bioassay [1]: 16.1%
- EC50 (ng/ml), in vitro activity-CHO/GLP-1R bioassay [1]: 59000 ng/mL

B1: pegfilgrastim (ligand, human, UniProt P09919-2 31-204, looked up)
chain: TPLGPASSLPQSFLLKCLEQVRKIQGDGAALQEKLCATYKLCHPEELVLLGHSLGIPWAPLSSCPSQALQLAGCLSQLHSGLFLYQGLLQALEGISPELGPTLDTLQLDVADFATTIWQQMEELGMAPALQPTQGAMPAFASAFQRRAGGVLVASHLQSFLEVSYRVLRHLAQP
modifications: N-terminal methionine residue pegylated with a 20 kDa polyethylene glycol
notes: Commercial product; also called Neulasta
- Kd [2]: 2.9 nM

B2: GST fusion protein of FcγRIIB (receptor, UniProt P31994 43-217, looked up)
chain: TPAAPPKAVLKLEPQWINVLQEDSVTLTCRGTHSPESDSIQWFHNGNLIPTHTQPSYRFKANNNDSGEYTCQTGQTSLSDPVHLTVLSEWLVLQTPHLEFQEGETIVLRCHSWKDKPLVKVTFFQNGKSKKFSRSDPNFSIPQANHSHSGDYHCTGNIGYTLYSSKPVTITVQAP
notes: Order of receptor and GST unknown; not shown: GST
- binding result [3]: no binding
